The experiment addresses BI 655089 (llama). Kind of experiment: flow cytometry on cells. (In general: Flow cytometry measures light scatter and fluorescence of single cells or particles in a stream.)

B1: human CX3CR1 (receptor, UniProt P49238 1-355, looked up)
chain: MDQFPESVTENFEYDDLAEACYIGDIVVFGTVFLSIFYSVIFAIGLVGNLLVVFALTNSKKPKSVTDIYLLNLALSDLLFVATLPFWTHYLINEKGLHNAMCKFTTAFFFIGFFGSIFFITVISIDRYLAIVLAANSMNNRTVQHGVTISLGVWAAAILVAAPQFMFTKQKENECLGDYPEVLQEIWPVLRNVETNFLGFLLPLLIMSYCYFRIIQTLFSCKNHKKAKAIKLILLVVIVFFLFWTPYNVMIFLETLKLYDFFPSCDMRKDLRLALSVTETVAFSHCCLNPLIYAFAGEKFRRYLYHLYGKCLAVLCGRSVHVDFSSSESQRSRHGSVLSSNFTYHTSDGDALLLL
On to B1, for which the binding result was “binds”.

The values above are taken from article PMC6973309 (mAbs, 2020).
